The term stoichiometry N denotes the number of molecules, sites or subunits per partner or assembly.

The source of these data is paper PMC5497811 (Nature, 2017).

B1: BT1763 (SusC-like), full-length, in freshly purified BT1762-1763 complex (natural protein, Bacteroides thetaiotaomicron, UniProt Q8A6W3 26-1041, looked up)
chain: GQNITVKGNVTSKTDGQPIIGASVVETTATTNGTITDFDGNFTLSVPVNSTLKITYIGYKPVTVKAAAIVNVLLEEDTQMVDEVVVTGYTTQRKADLTGAVSVVKVDEIQKQGENNPVKALQGRVPGMNITADGNPSGSATVRIRGIGTLNNNDPLYIIDGVPTKAGMHELNGNDIESIQVLKDAASASIYGSRAANGVIIITTKQGKKGQIKINFDASVSASMYQSKMNVLNTEQYGRAMWQAYVNDGENPNGNALGYAYNWGYNADGNPVLYGMTLSKYLDSKNTMPVADTDWFDEITRTGVIQQYNLSVSNGSEKGSSFFSLGYYKNLGVIKDTDFDRFSARMNSDYKLIDDILTIGQHFTLNRTSEVQAPGGIIETALDIPSAIPVYASDGSWGGPVGGWPDRRNPRAVLEYNKDNRYTYWRMFGDAYVNLTPFKGFNLRSTFGLDYANKQARYFTYPYQEGTQTNNGKSAVEAKQEHWTKWMWNAIATYQLEVGKHRGDVMIGMELNREDDSHFSGYKEDFSILTPDYMWPDAGSGTAQAYGAGEGYSLVSFFGKMNYSYADRYLLSLTLRRDGSSRFGKNHRYATFPSVSLGWRITQENFMKELTWLDDLKLRASWGQTGNQEISNLARYTIYAPNYGTTDSFGGQSYGTAYDITGSNGGGVLPSGFKRNQIGNDNIKWETTTQTNVGIDFSLFKQSLYGSLEYYYKKATDILTEMAGVGVLGEGGSRWINSGAMKNQGFEFNLGYRNKTAFGLTYDLNGNISTYRNEILELPETVAANGKFGGNGVKSVVGHTYGAQVGYIADGIFKSQDEVDNHATQEGAAVGRIRYRDIDHNGVIDERDQNWIYDPTPSFSYGLNIYLEYKNFDLTMFWQGVQGVDIISDVKKKSDFWSASNVGFLNKGTRLLNAWSPTNPNSDIPALTRSDTNNEQRVSTYFVENGSFLKLRNIQLGYTVPAVISKKMRMDRLRFYCSAQNLLTIKSKNFTGEDPENPNFSYPIPVNITFGLNIGF

Data set [1] deals with BT2264 (SusC-like TonB-dependent transporter) (Bacteroides thetaiotaomicron). Put plainly: crystal structure.
The data set “native MS” deals with the molecule itself. Put plainly: native MS.
Data set [2] has as its target B1. Kind of data set: SDS-PAGE of non-boiled samples.

Take “BT2264 (SusC-like TonB-dependent transporter) (natural protein)”: the stoichiometry N in data set [1] is 2.
As to B1, the “stoichiometry N” value in “native MS” is 2.

B2: BT1762 (SusD-like) with C-terminal 4xAla linker and 6xHis-tag, native from B. theta (natural protein, Bacteroides thetaiotaomicron, UniProt Q8A6W4 19-570, looked up)
chain: CDDFLDRQVPQGIVTGDQIASPEYVDNLVISAYAIWATGDDINSSFSLWNYDVRSDDCYKGGSGTEDGGVFNALEISKGINTTDWNINDIWKRLYQCITRANTALQSLDQMDEKTYPLKNQRIAEMRFLRGHAHFMLKQLFKKIVIVNDENMEPDAYNELSNTTYTNDEQWQKIADDFQFAYDNLPEVQIEKGRPAQAAAAAYLAKTYLYKAYRQDGADNALTGINEEDLKQVVKYTDPLIMAKGGYGLETDYSMNFLPQYENGAESVWAIQYSINDGTYNGNLNWGMGLTTPQILGCCDFHKPSQNLVNAFKTDSQGKPLFSTYDNENYEVATDNVDPRLFHTVGMPGFPYKYNEGYIIQKNDDWSRSKGLYGYYVSLKENVDPDCDCLKKGSYWASSLNHIVIRYADVLLMRAEALIQLNDGRITDAISLINEVRSRAAGSTMLIFNYKEDYGVNFKVTPYDLKAYAQDEAMKMLKWERRVEFGMESSRFFDLVRWGEAKDVINAYYVTEASRCSIYKNAGFTENKNEYLPVPFEQISASNGNYTQNFGW
Take B2: in data set [2], the binding result is “binds”.
